Tests used:
[1] = target: T1, Full length human CD40 (huCD40) on cells (human, UniProt P25942 21-277); assay: cell-based or functional assay
[2] = target: T2, human CD40 (SPR analyte) (human, UniProt P25942 21-193); assay: SPR ProteOn XPR36, mAb captured by anti-human IgG Fc, CD40 as analyte, 25 C; mean of n = 5 (SD 1.51E-09); did not fit well to 1:1 model
T2 construct: also called huCD40-ECD
Protocol: (§1) Affinity measurements were performed using Surface Plasmon Resonance (SPR) using a ProteOn XPR36 system (BioRad). […] Approximately 5000 RU (response units) of mAbs were immobilized. The kinetic experiments were performed at 25° C. in running buffer (DPBS+0.01% P20+100 μg/ml BSA). To perform kinetic experiments, 200 RU of mAbs were captured followed by injections of analytes (human or cyno CD40) at 5 concentrations (in a 4-fold serial dilution). The association phase was monitored for 3 minutes at 50 μL/min, then followed by 15 minutes of buffer flow (dissociation phase). The chip surface was regenerated with two 18 second pulses of 100 mM H₃PO₄ (Sigma, Cat#7961) at 100 μL/min.
(§2) The collected data were processed using ProteOn Manager software. First, the data was corrected for background using inter-spots. Then, double reference subtraction of the data was performed by using the buffer injection for analyte injections. The kinetic analysis of the data was performed using a Langmuir 1:1 binding model. The result for each mAb was reported in the format of Ka (On-rate), Kd (Off-rate) and KD (equilibrium dissociation constant).
(§3) The parameters reported in this table were obtained from a 1:1 Langmuir binding model for all samples. Affinity, KD=kd/ka.

[3] = target: T1, Full length human CD40 (huCD40) on cells; assay: flow cytometry, human mature DCs
Target sequence in this assay (P25942 21-277): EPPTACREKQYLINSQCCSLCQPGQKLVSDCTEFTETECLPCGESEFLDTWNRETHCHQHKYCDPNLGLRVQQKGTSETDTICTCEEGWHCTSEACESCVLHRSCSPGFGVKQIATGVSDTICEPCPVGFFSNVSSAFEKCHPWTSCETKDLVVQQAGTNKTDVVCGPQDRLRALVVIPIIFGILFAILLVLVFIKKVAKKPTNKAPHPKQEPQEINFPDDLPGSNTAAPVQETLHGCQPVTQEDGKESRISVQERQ

[4] = target: T1, Full length human CD40 (huCD40) on cells; assay: flow cytometry, HEK-Blue CD40L cells
Target sequence in this assay (P25942 21-277): as above

[5] = target: T1, Full length human CD40 (huCD40) on cells; assay: cell-based or functional assay; remark: listed apart in the source
Target sequence in this assay (P25942 21-277): as above

[6] = target: T2, human CD40 (SPR analyte); assay: SPR ProteOn XPR36, mAb captured by anti-human IgG Fc, CD40 as analyte, 25 C; mean of n = 5 (SD 0.97E-03); did not fit well to 1:1 model
Protocol: as §1, §2, §3

[7] = target: T1, Full length human CD40 (huCD40) on cells; assay: flow cytometry, human DCs
Target sequence in this assay (P25942 21-277): as above

[8] = target: T1, Full length human CD40 (huCD40) on cells; assay: flow cytometry, Raji cells
Target sequence in this assay (P25942 21-277): as above

[9] = target: T1, Full length human CD40 (huCD40) on cells; assay: flow cytometry, human B cells
Target sequence in this assay (P25942 21-277): as above

[10] = target: T1, Full length human CD40 (huCD40) on cells; assay: flow cytometry, human B cells; separate experiment
[11] = target: T1, Full length human CD40 (huCD40) on cells; assay: flow cytometry, HEK-Blue CD40L cells; separate experiment
[12] = target: T1, Full length human CD40 (huCD40) on cells; assay: flow cytometry, HEK-Blue CD40L cells; remark: listed apart in the source
[13] = target: T3, cyno CD40 (SPR analyte) (Macaca fascicularis (cynomolgus), UniProt P25942 21-193 (human entry), limits assumed); assay: SPR ProteOn XPR36, mAb captured by anti-human IgG Fc, cyno CD40 as analyte, 25 C; mean of n = 3 (SD 0.07E-03)
T3 construct: also called cCD40-ECD
T3 chain: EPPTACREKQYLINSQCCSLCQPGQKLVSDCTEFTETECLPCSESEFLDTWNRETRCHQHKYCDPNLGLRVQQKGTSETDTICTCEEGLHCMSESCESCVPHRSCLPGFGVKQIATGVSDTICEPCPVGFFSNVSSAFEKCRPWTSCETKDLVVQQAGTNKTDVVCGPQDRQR
Protocol: as §1, §2

[14] = target: T3, cyno CD40 (SPR analyte); assay: SPR ProteOn XPR36, mAb captured by anti-human IgG Fc, cyno CD40 as analyte, 25 C; mean of n = 3 (SD 1.02E+05)
Protocol: as §1, §2

[15] = target: T1, Full length human CD40 (huCD40) on cells; assay: flow cytometry, human DCs; separate experiment
[16] = target: T4, Macaca fascicularis (cyno) CD40 (cCD40) on cells (Macaca fascicularis (cynomolgus), UniProt P25942 21-277 (human entry)); assay: flow cytometry, cyno mature DCs
T4 construct: CD40 on cyno mature DCs
T4 chain: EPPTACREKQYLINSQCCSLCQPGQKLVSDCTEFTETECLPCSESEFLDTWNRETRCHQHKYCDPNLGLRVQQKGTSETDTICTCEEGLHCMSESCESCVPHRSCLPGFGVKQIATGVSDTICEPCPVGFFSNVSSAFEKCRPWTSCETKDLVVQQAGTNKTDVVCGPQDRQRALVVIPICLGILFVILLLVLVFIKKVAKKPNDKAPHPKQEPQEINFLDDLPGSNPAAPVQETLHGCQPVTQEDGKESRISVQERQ

[17] = target: T1, Full length human CD40 (huCD40) on cells; assay: cell-based or functional assay; remark: listed apart in the source
[18] = target: T2, human CD40 (SPR analyte); assay: SPR ProteOn XPR36, mAb captured by anti-human IgG Fc, CD40 as analyte, 25 C; mean of n = 5 (SD 1.83E+05); did not fit well to 1:1 model
Protocol: as §1, §2, §3

[19] = target: T3, cyno CD40 (SPR analyte); assay: SPR ProteOn XPR36, mAb captured by anti-human IgG Fc, cyno CD40 as analyte, 25 C; mean of n = 3 (SD 0.24E-09)
Protocol: as §1, §2, §3

B1: C40M9 (antibody, human IgG1, lambda, V domains shown)
VH: QLQLQESGPGLVKPSEILSLTCTVSGGSISSSSYYWGWIRQPPGKGLEWIGNIYYRGDTYYSPSLKSRVTISVDTSKNQFSLKLNSVTAADTAVYYCAKGFRFDYWGQGTLVTVSS
VL: QSALTQPPSASGSPGQSVTISCTGTSSDVGGYNYVSWYQQHPGKAPKLMIYEVSKRPSGVPDRFSGSKSGNTASLTVSGLQAEDEADYYCSSYAGSNNLVFGGGTKLTVLG
- EC50, Human B cells (CD83) [1]: 0.766 ng/mL
- EC50, Human B cells (CD83), separate experiment [1]: 0.145 ng/mL
- EC50, Human DC (HLA-DR) [1]: 118 ng/mL
- EC50, Human DC (HLA-DR), separate experiment [1]: 16.7 ng/mL
- EC50, agonistic activity on HEK-Blue™ CD40L cells (NF-κB/SEAP) [1]: 13.8 ng/mL
- EC50, agonistic activity on HEK-Blue™ CD40L cells (NF-κB/SEAP), separate experiment [1]: 6.21 ng/mL
- Kd [2]: 4.09 nM
- EC50 [3]: 123 ng/mL
- EC50 [4]: 94.2 ng/mL
- B cells EC50, CD23 surface expression, with cross-linker [5]: 2.87 ng/mL
- B cells EC50, CD80 surface expression, with cross-linker [5]: 13.1 ng/mL
- B cells EC50, CD83 surface expression, with cross-linker [5]: 0.00668 ng/mL
- B cells EC50, CD86 surface expression, with cross-linker [5]: 0.0109 ng/mL
- B cells EC50, HLA-DR surface expression, with cross-linker [5]: 0.012 ng/mL
- koff [6]: 0.00285 s⁻¹
- EC50 [7]: 152 ng/mL
- EC50 [8]: 57.1 ng/mL
- EC50 [9]: 60.9 ng/mL
- EC50 [10]: 19.1 ng/mL
- EC50 [11]: 615 ng/mL
- EC50 [12]: 143 ng/mL
- koff [13]: 0.00126 s⁻¹
- kon [14]: 901000 M⁻¹ s⁻¹
- EC50 [15]: 46.2 ng/mL
- EC50 [16]: 45.1 ng/mL
- DC EC50, CD80 surface expression, with cross-linker [17]: 27.7 ng/mL
- DC EC50, CD83 surface expression, with cross-linker [17]: 39.8 ng/mL
- DC EC50, CD86 surface expression, with cross-linker [17]: 103 ng/mL
- DC EC50, HLA-DR surface expression, with cross-linker [17]: 79.7 ng/mL
- kon [18]: 727000 M⁻¹ s⁻¹
- Kd [19]: 1.42 nM

— patent US20170088624A1 (Janssen / Centocor, published 2017)
